Data on three substances can be found in patent publication US20260234280A1.

In assay [1] the target is cynomolgus monkey CD3 recombinant protein (Acro, Cat. No. CDD-C52W4) (cynomolgus monkey) (UniProt Q95LI5). Nature of the assay: SPR (Biacore), CD3 immobilised on CM5 chip, antibody as analyte, 1:1 model. In general terms: In SPR one partner is held on a chip, and binding of the other changes the refractive index at the surface.
Assay [2] has as its target human CD3 recombinant protein (Acro, Cat. No. CDD-H52W1) (human) (UniProt P07766). The assay is described as above.
Assay [3] deals with human BCMA (human-BCMA) (human) (UniProt Q02223). Nature of the assay: cell-based or functional assay.
A further assay has as its target soluble BCMA (UniProt Q02223). Nature of the assay: cell-based or functional assay.
Assay [4] has as its target cynomolgus monkey CD3 naturally expressed on cyno PBMCs (cynomolgus monkey) (UniProt Q95LI5). Nature of the assay: flow cytometry (FACS), cyno PBMCs.
For assay [5], the target named is human CD3 naturally expressed on Jurkat T lymphocytes and human PBMCs (human) (UniProt P07766). Nature of the assay: flow cytometry (FACS), human PBMCs. For orientation: A flow cytometer gives signals particle by particle.
The target is the same in assay [6]. Nature of the assay: flow cytometry (FACS), Jurkat cells.
Assay [7] addresses human BCMA (human-BCMA) (human) (UniProt Q02223). Nature of the assay: flow cytometry (FACS), NCI-H929 cells.
Assay [8] has the same target. Nature of the assay: flow cytometry (FACS), RPMI8226 cells.
Assay [9] shares this target. Nature of the assay: flow cytometry (FACS), human BCMA-CHOK1 cells.
Assay [10] has as its target human GPRC5D (human-GPRC5D) (human) (UniProt Q9NZD1). Nature of the assay: flow cytometry (FACS), human GPRC5D-CHOK1 cells.
Assay [11] addresses cynomolgus monkey BCMA (cyno-BCMA) (cynomolgus monkey). Nature of the assay: flow cytometry (FACS), cynomolgus monkey BCMA-CHOK1 cells.
For assay [12], the target named is cynomolgus monkey BCMA recombinant protein (Acro, Cat. No. BCA-C52H7) (cynomolgus monkey). Nature of the assay: SPR (Biacore), antibody captured by anti-human IgG (Fc) on CM5 chip, BCMA as analyte, 1:1 model.
Assay [13] concerns the target human BCMA recombinant protein (Acro, Cat. No. BCA-H522y) (human) (UniProt Q02223). The assay is described as above.
The target of assay [14] is human BCMA and human GPRC5D, the dual targets expressed on NCI-H929 and RPMI8226 tumor cells. Nature of the assay: flow cytometry (FACS), NCI-H929 cells.
The target is the same in assay [15]. Nature of the assay: flow cytometry (FACS), RPMI8226 cells.

cynomolgus monkey CD3 recombinant protein (Acro, Cat. No. CDD-C52W4) (cynomolgus monkey), sequence (Q95LI5 22-117): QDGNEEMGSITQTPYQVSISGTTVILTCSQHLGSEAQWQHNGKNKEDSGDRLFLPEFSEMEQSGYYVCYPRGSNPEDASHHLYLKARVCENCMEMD
human CD3 naturally expressed on Jurkat T lymphocytes and human PBMCs (human), sequence (P07766 23-207): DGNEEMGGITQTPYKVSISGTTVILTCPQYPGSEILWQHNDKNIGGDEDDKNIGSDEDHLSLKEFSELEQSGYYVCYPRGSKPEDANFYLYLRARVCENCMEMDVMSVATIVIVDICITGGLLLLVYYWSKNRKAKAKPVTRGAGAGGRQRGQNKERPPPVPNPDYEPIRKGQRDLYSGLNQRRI
human CD3 recombinant protein (Acro, Cat. No. CDD-H52W1) (human), sequence (P07766 23-126): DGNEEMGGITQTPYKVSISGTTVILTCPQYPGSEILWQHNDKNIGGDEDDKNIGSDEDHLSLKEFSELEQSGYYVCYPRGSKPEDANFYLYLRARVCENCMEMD
human BCMA (human-BCMA) (human), sequence (Q02223 whole entry): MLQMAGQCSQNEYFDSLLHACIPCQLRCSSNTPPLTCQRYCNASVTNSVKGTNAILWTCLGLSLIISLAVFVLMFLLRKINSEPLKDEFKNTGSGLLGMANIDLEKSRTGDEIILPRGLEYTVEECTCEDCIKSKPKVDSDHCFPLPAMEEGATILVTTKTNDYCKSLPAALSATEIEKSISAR
human BCMA recombinant protein (Acro, Cat. No. BCA-H522y) (human), sequence (Q02223 1-54 limits assumed): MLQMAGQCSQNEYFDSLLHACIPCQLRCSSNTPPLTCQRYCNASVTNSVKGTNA
soluble BCMA, sequence (Q02223 1-54 limits assumed): as above
cynomolgus monkey CD3 naturally expressed on cyno PBMCs (cynomolgus monkey), sequence (Q95LI5 22-198): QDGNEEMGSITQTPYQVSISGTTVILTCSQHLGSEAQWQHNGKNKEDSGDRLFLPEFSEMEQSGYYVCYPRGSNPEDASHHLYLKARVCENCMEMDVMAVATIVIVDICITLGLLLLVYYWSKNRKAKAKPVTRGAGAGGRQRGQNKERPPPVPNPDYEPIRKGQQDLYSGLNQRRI
cynomolgus monkey BCMA (cyno-BCMA) (cynomolgus monkey), sequence (Q02223 other isoform, or with tags, fused parts or gaps): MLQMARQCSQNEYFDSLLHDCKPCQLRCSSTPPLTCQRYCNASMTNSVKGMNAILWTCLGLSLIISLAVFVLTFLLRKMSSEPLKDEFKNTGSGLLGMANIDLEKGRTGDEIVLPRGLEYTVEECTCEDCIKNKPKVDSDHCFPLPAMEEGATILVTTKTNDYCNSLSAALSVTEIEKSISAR
human GPRC5D (human-GPRC5D) (human), sequence (Q9NZD1 whole entry): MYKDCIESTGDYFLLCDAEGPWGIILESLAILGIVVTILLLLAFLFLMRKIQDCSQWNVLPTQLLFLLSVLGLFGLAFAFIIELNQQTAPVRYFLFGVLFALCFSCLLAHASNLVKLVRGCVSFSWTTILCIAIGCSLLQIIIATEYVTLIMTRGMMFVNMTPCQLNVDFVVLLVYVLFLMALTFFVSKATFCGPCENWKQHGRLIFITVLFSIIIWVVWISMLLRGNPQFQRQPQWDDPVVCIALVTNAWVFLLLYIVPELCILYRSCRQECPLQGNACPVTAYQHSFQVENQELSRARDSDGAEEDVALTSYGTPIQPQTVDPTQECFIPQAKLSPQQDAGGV

As to “Talquetamab analogue (GPRC5D/CD3), GPRC5DxCD3 bispecific antibody from Janssen”, in [1], the Kd – broadly, the constant that tells how readily two partners part at equilibrium – is 22.2 nM; the koff (in general, a measure of how fast the partners let go of each other) stood at 0.00379 s⁻¹; the kon (usually the second-order rate constant of association) is 170000 M⁻¹ s⁻¹. For the same substance, in assay [2], the equilibrium dissociation constant (Kd) worked out at 18 nM, the koff was determined as 0.00201 s⁻¹ and the kon was found to be 112000 M⁻¹ s⁻¹.

For “Teclistamab analogue (BCMA/CD3), BCMAxCD3 bispecific antibody from Janssen”, in [3], the TDCC Cytotoxicity (max) on NCI-H929 with 0 ug/ml BCMA came to 40.9. The TDCC EC50 (nM) on NCI-H929 with 0 ug/ml BCMA in assay [3] turned out to be 0.115 nM. Moreover, the Ratio (EC50), TDCC on NCI-H929 with 2.5 ug/ml against 0 ug/ml BCMA with soluble BCMA was found to be 21. In the assay with soluble BCMA, this substance returned a TDCC Cytotoxicity (max) on NCI-H929 with 2.5 ug/ml BCMA of 53.9. This substance also had a TDCC EC50 (nM) on NCI-H929 with 2.5 ug/ml BCMA with soluble BCMA of 2.36 nM. Further, the fold change of TDCC EC50 on NCI-H929 in the presence of 2500 ng/ml soluble BCMA with soluble BCMA was 25 fold. Moreover, the EC50 (in general, the concentration that produces a half-maximal response) is 55.8 nM in assay [4]; 6.06 nM in [5]; 3.22 nM in [6]; 2.43 nM in assay [7]; 1.17 nM in assay [8]; 2.63 nM in assay [9]. The EC50 in [11] worked out at 15.3 nM. Moreover, the Top MFI was 2060 MFI in assay [4]; 672 MFI in [5]; 825 MFI in [6]; 669 MFI in assay [7]; 169 MFI in assay [8]; 2280 MFI in [9]. The Top MFI was found to be 160 MFI in [10] and 1770 MFI in assay [11]. Further, the Kd came to 21.1 nM in assay [1], 21 nM in assay [2], 8.49 nM in assay [12] and 0.379 nM in assay [13]. The koff in [1] was 0.00336 s⁻¹; in [2], 0.00522 s⁻¹; in assay [12] it was 0.0235 s⁻¹; in assay [13] it was 0.00135 s⁻¹. Besides, the kon in [1] was found to be 159000 M⁻¹ s⁻¹; in assay [2], 248000 M⁻¹ s⁻¹; in assay [12] it was 2.77e+06 M⁻¹ s⁻¹; in [13], 3.55e+06 M⁻¹ s⁻¹.

With “hIgG1 LALA isotype (Biointron, Cat. No. B109802) (antibody)”, the Top MFI stood at 104 MFI in assay [14] and 112 MFI in assay [15].
